The assay deals with mAb-1E7. As to the kind of experiment: SPR; Biacore 8K; mAb-1E7 immobilized on a Protein G chip; PCV2-Cap or Nb61 injected at 30 µL/min, 1.5625 to 25 nM; 10 mM HEPES pH 7.4, 150 mM NaCl, 3 mM EDTA, 0.05% Tween 20. A general note: SPR reads the build-up and loss of mass on a sensor chip optically.
Chain of mAb-1E7 (heavy, as listed by the source, chain 1 of 2): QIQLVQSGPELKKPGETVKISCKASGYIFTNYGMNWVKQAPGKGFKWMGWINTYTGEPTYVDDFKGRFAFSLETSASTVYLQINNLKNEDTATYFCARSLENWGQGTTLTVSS
Chain of mAb-1E7 (light, as listed by the source, chain 2 of 2): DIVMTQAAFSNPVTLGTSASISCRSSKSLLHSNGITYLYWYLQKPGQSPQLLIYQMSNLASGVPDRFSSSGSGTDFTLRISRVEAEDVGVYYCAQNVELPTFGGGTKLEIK

B1: Nb61 (VHH)
VHH: QVQLQESGGGSVQAGGSLRLSCAGSDFPYCSYDMSWYRQAPGKEREFVSGIDRDGTIRYADAVKGRFTISQGDAKNTLYLQMNSLKPEDTAMYYCKTTPRNYNDFLGCVDYWGQGTQVTVSS
For orientation: Kd means the constant that tells how readily two partners part at equilibrium. Read a low Kd as higher affinity. By koff is commonly meant the first-order rate constant of dissociation. A lower koff goes with slow dissociation. As usually defined, the kon is the rate constant with which the complex forms. A higher kon goes with fast association. With B1, the Kd came out at 12 nM, the koff worked out at 0.0222 s⁻¹ and the association rate constant (kon) was 1.86e+06 M⁻¹ s⁻¹.

These data come from PMC10878242.
